# Assay results from article PMC5581195, “The activation of OsEIL1 on YUC8 transcription and auxin biosynthesis is required for ethylene-inhibited root elongation in rice early seedling development”.
# B1: YUC8/REIN7 promoter EBS probe (P1 fragment region) (dsDNA)
# DNA 1: CCAAAATTTTTAATGTAAAATTTTAAGTACATTTTTTTCATGTACTAGCTACCTCC
# DNA 2: GGAGGTAGCTAGTACATGAAAAAAATGTACTTAAAATTTTACATTAAAAATTTTGG
# Target: T1, GST-EIL1-N (OsEIL1 N-terminal region) (Oryza sativa (rice), UniProt Q10M41 1-350)
# T1 sequence: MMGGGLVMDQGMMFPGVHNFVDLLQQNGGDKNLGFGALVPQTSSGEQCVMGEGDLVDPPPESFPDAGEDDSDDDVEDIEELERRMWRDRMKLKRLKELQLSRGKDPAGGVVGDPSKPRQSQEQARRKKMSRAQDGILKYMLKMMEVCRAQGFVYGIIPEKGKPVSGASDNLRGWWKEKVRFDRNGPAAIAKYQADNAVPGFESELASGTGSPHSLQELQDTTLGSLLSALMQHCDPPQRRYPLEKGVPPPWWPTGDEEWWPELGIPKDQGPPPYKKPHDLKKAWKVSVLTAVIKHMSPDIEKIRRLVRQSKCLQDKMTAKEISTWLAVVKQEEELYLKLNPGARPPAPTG
# Experiment: EMSA; specificity shown by excess unlabeled probe competition; LightShift Chemiluminescent EMSA kit, manufacturer's protocol; 20 min at room temperature; 5% native polyacrylamide gel; buffer, salt and pH not stated
# Conditions: protein: recombinant; tags: N-terminal GST (pGEX-6p-1); label: biotin 3' end; blunt
binder,measurement,value
B1,binding result,binds
